Test results: the nanobody polyreactivity screen of Harvey et al. (2022)

Experiment: yeast display, Sf9 membrane polyspecificity reagent, FACS + sequencing; frameworks hold sequencing errors
Method in brief: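 Polyreactivity labels are assigned by the sorting gate from which each nanobody was recovered. The gates were low and high (top ~1%), set on anti-HA fluorescence for expression and streptavidin fluorescence for reagent binding. Before sorting, galactose-induced (36–48 hours) yeast display cells were stained for 1 hour at 4 °C with 10% biotinylated, detergent-solubilized Sf9 membrane reagent.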

Sequence	polyreactivity (PSR sort gate)
QVHLVESGGGLVQAGGSLRLSCAASGSTLVIYAMGWYRQAPGKERELVAVITWSGGSTYYADSVKGRFTISRDNAKNTVYLQMNSLKPEDTAVYYCAKRPIVRQRSYYYWGQGTQVTVSS	low polyreactivity
QVQLVESGGGLVQAGGSLRLSCAASGRIFRYYAKGWYRQATGKERELVAAISWSGGSTYYADSVKGRFTISRDNAKNTVYLQMHSLKPEDTAVYYCNAAVTQFTHRWRRRITFDYWGQGTQVTVSS	high polyreactivity
QVQLVESGGGLVQAGGSLRLSCAASGRTFRNYAMGWSRPAPWKERELVATITSSGASTYYADSVKGRFTISRDNAKNTVYLQMNSLKPEDTAVYYCAARPYTGRYFLCYYYWGQGTQVTVSS	high polyreactivity
QVQLVESGGGVVQSRGSLRLTCAASGRIFLQYAMGWYRQAPWKERELVAAIEWSGGRTYYADSVKGRFTISRDNAKNTVYLQMNSLTPEDTAVYYCAARRISGSAVRGSRGYWGQGTQVTVSS	high polyreactivity
QVQLVESGGGLVQAGGSLRLSCAASGRIFTAYDMGWYRQAPGKERELVAAITRSSGSTYYADSVKGRFTISRDNAKNTVYLQMNSLKGEDTAVYYCATDGEFWGYDSWGQGTQVTVSS	low polyreactivity
QVQLVESAGGLVQARGSLRLSCAASGITFAQYAKGWYRQATGKERELVAGITRSGGSTHYADSVKGRFTISRDNAKYTVYLQMKSLKPEDSAVYYCNARYPYRGKRKPPDYWGQGTQVTVSS	high polyreactivity
QVQLVESGGGLVQAGGSLRLSCAASGFIFTRYAMGWYRQAPGKERELVARISGGGGSTYYADSVKGRFTISRDNAKNTVYLQMNSLKPEDTAVYYCNARWYPYISRYGIEARYDYWGQGTQVTVSS	high polyreactivity
QVQLVDSGGGLVQAGGSLPLSCAASGRIIAHYALGWYRQAPGKERELVAAIRRSGVSTYYADSVKGRFTISRDNANNTVYLQMHSLKPEDTAVYYCNARAYVSPYDYWGHGTQVTVSS	low polyreactivity
QVQLEESGGGLVQAGGSLRLSCAASGRIFGYYDMGWYRQAPGKERELVARITRGGGTTYYADSVKGRFTISRDNAKNTVYLQMNSLKPEDTAVYYCAAVRSWWHTHYNYDYWGQGTQVTVSS	high polyreactivity
QVQLVESGGGLVQAGGSLRLSCAGSGRTFGRYAMGGYRQAPGKERELVAAIRSGGSTYYADSVKGRFTISRDNAKNTVYFQMNSLKPEDTAVYYCAADSTSLYNYWGQGTQVTVLS	low polyreactivity
QVQLVESGGGLVQAGGSLRLSCADSGFTFKSYTMGWYRQAPGKERELVAAISRRDGSTYYADSVKGRFTISRDNAKNTVYLQMNSLKPEDTAVYYCAKVWYGDRNIDRYDYWGQGTQVTVSS	high polyreactivity
QVQLVESGGGLVQAGGSLRLSCAASGIIFHPYAMGWYRQAPGKERELVAVITWPGDSTYYADSVKGRFTISRDNAKNTVYLQMNSLKPEDTAVYYCNVDAWGTSGELPYDYWGQGSQVTVSS	low polyreactivity
PVQLVESGGGLVQAGGSLRLSCAASGRIFAYYAMGWYRQATGKERELVAAITRRGSTNYADSVKGRFTISGDNAKNTVYLQMNSLKQEVTAFYYCAARDAIYGSDYWGQGTQVNVSS	high polyreactivity
QVQLVESGGGLVQAGGSLRLSCAASGRIFKYYVMGWYRQAPGKERELVAGISSSGGSTYYADSVKGRFTISRDNAKNTVYLQMNSLKPEDTAVYYCAADYTFAYYNVKMDYWGQGTQVTVSS	low polyreactivity
QVQLVESGGGLVQAGGSLRLSCAASGRIIYTYAMGWYRQAPGKERELVAAISWSGGSTYYADSVKGRFTISRDNAKNTVYLQMNSLKPEDTAVYFCNAAYYGYENLSKRGYWGQGTQVTVSS	high polyreactivity
QVQLVESGGGLVQAGGSLRLSCAASGRILSVYVMGWYRQAPGKERELVAAISRNGGRTYYADSVKGRFTISRDNAKNTVYLQMNSLKPEDTAVYYCAKSQRGTVYSYYYWGQGTQVTVSS	high polyreactivity
